Measured values taken from patent US11752086B2, “Topical formulations and methods” (MYOCEPT INC., priority 2017, dated 2023).

Assay: isoelectric point (pI) as stated
Format: physicochemical
Description: For the second study this procedure was modified to include a chromatographic enrichment/purification step over a HiTrap SP-Sepharose cation exchange column (GE Healthcare). Both MCPT-201 and alpha cobratoxin are highly positively charged proteins with a pI of 8.2. They are routinely purified on cation exchange resigns such as SP-Sepharose. The sample buffer in the Franz cell receiving chamber was changed to 50 mM MES-NaOH, 20 mM NaCl, 0.1 mM EDTA, pH 6.0 in order to make samples directly compatible with cation exchange chromatography over SP-Sepharose.

Question: Which pI does the source give for alpha cobratoxin here?
Answer: 8.2
